The target of the test is T1, EGFR on cells (UniProt P00533 25-1210, limits assumed).
T1 construct: whole, on cells; also called epidermal growth factor receptor
Kind of test: flow cytometry on MDA-MB-468 cells, anti-human-Alexa 488.

B1: anti-CD3 antibody (COVA489) (antibody, human IgG1, kappa, V domains shown)
VH: QVQLQQSGAELARPGASVKMSCKASGYTFTRSTMHWVKQRPGQGLEWIGYINPSSAYTNYNQKFKDKATLTADKSSSTAYMQLSSLTSEDSAVYYCASPQVHYDYNGFPYWGQGTLVTVSA
VL: QVVLTQSPAIMSAFPGEKVTMTCSASSSVSYMNWYQQKSGTSPKRWIYDSSKLASGVPARFSGSGSGTSYSLTISSMETEDAATYYCQQWSRNPPTFGGGTKLQITR
With B1, the binding result was “no binding (tested: 100 nM)”.
